{"source": "patent US20220296683A1", "about": "“ORAL DELIVERY SYSTEM” (University College Dublin, priority 2019, published 2022)", "assay": "Circular dichroism of secondary structure of SiNP-released peptide", "format": "physicochemical", "details": "CD", "source_text": "The behaviour of insulin-SiNPs and exenatide-SiNPs in biologically-relevant buffers depended on media pH and salinity. Both constructs aggregated in PBS, while remaining colloidally-stable in simulated small intestinal fluid (SIF) at pH 6.3 (Supplementary FIGS. 18, 19 for insulin-SiNPs and exenatide-SiNPs, respectively). PBS was used to measure the concentration of the released peptide, while SIF was used to examine secondary structure. For insulin-SiNPs (˜300 nm in diameter, particle concentration of 0.2 mg/mL), release was measured by HPLC in simulated gastric fluid (SGF) at pH 2.3, SIF at pH 6.3, and PBS at pH 7.4. […] Exenatide-SiNP dissolved in PBS in a size-dependent fashion: particles of ˜90 nm in diameter dissolved within 60 min at a particle concentration 0.2 mg/mL, while ˜200 nm diameter particles took over 3 h (Supplementary FIG. 20a). […] Parameters used were as follows: • Measurement window: 200-300 nm. • Data pitch: 0.5 nm • Band width: 2 nm • Response: 4 sec • Scanning speed 50 nm/min • Number of runs in measurement (accumulation): 8 • Temperature: Room temperature (20° C.) Insulin, L-arg solutions, mixtures and insulin core and SiNPs were measured at appropriate concentration in an ultra-low volume (1=1 mm) cuvette and at appropriate concentrations. […]", "data": [{"substance": "released exenatide: exenatide released from exenatide-SiNPs in PBS", "values": [{"measurement": "secondary structure of released peptide vs free peptide", "value": "comparable to that of the free peptide"}]}]}
